This note sets out measurements from the supplement of paper PMC12338614.

± gives the uncertainty stated by the source.

B1: library; numbered along this chain (parent)
chain: MEVVDPQQLGMFTEGELMSVGMDTFIHRIDSTEVIYQPRRKRAKLIGKYLMGDLLGEGSYGKVKEVLDSETLCRRAVKILKKKKLRRIPNGEANVKKEIQLLRRLRHKNVIQLVDVLYNEEKQKMYMVMEYCVCGMQEMLDSVPEKRFPVCQAHGYFCQLIDGLEYLHSQGIVHKDIKPGNLLLTTGGTLKISDLGVAEALHPFAADDTCRTSQGSPAFQPPEIANGLDTFSGFKVDIWSAGVTLYNITTGLYPFEGDNIYKLFENIGKGSYAIPGDCGPPLSDLLKGMLEYEPAKRFSIRQIRQHSWFRKKHPPAEAPVPIPPSPDTKDRWRSMTVVPYLEDLHGADEDEDLFDIEDDIIYTQDFTVPGQVPEEEASHNGQRRGLPKAVCMNGTEAAQLSTKSRAEGRAPNPARKACSASSKIRRLSACKQQ

In the data set the parent is B1. Description: STK11 functional score (HeLa growth suppression), rescaled enrichment; synonymous median = 1, nonsense median = 0 (normalised score). The following applies: with HeLa; variant type: missense. The protocol:
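Deep mutational scan (TileSeq/POPCode codon randomisation) of full-length codon-optimised STK11 cDNA integrated at a Bxb1 landing pad (AAVS1) in HeLa cells. Restoring functional STK11 suppresses HeLa proliferation. Variant frequencies were measured by NGS before and after about two weeks of growth. The error-corrected enrichment log-ratio was rescaled so that synonymous median = 1 and nonsense median = 0, scores above 1 were compressed, and codon-level and three biological replicate scores were combined; error is the bootstrapped standard error. Scale: synonymous median = 1, nonsense median = 0; below 0.5 = damaging.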
Turning to MEVVDPQQLGMFTEGELMSVGMDTFIHRIDSTEVIFQPRRKRAKLIGKYLMGDLLGEGSYGKVKEVLDSETLCRRAVKILKKKKLRRIPNGEANVKKEIQLLRRLRHKNVIQLVDVLYNEEKQKMYMVMEYCVCGMQEMLDSVPEKRFPVCQAHGYFCQLIDGLEYLHSQGIVHKDIKPGNLLLTTGGTLKISDLGVAEALHPFAADDTCRTSQGSPAFQPPEIANGLDTFSGFKVDIWSAGVTLYNITTGLYPFEGDNIYKLFENIGKGSYAIPGDCGPPLSDLLKGMLEYEPAKRFSIRQIRQHSWFRKKHPPAEAPVPIPPSPDTKDRWRSMTVVPYLEDLHGADEDEDLFDIEDDIIYTQDFTVPGQVPEEEASHNGQRRGLPKAVCMNGTEAAQLSTKSRAEGRAPNPARKACSASSKIRRLSACKQQ [Y36F], the STK11 functional score worked out at 0.511 ± 0.078.
As to MEVVDPQQLGMFTEGELMSVGMDTFIHRIDSTEVIGQPRRKRAKLIGKYLMGDLLGEGSYGKVKEVLDSETLCRRAVKILKKKKLRRIPNGEANVKKEIQLLRRLRHKNVIQLVDVLYNEEKQKMYMVMEYCVCGMQEMLDSVPEKRFPVCQAHGYFCQLIDGLEYLHSQGIVHKDIKPGNLLLTTGGTLKISDLGVAEALHPFAADDTCRTSQGSPAFQPPEIANGLDTFSGFKVDIWSAGVTLYNITTGLYPFEGDNIYKLFENIGKGSYAIPGDCGPPLSDLLKGMLEYEPAKRFSIRQIRQHSWFRKKHPPAEAPVPIPPSPDTKDRWRSMTVVPYLEDLHGADEDEDLFDIEDDIIYTQDFTVPGQVPEEEASHNGQRRGLPKAVCMNGTEAAQLSTKSRAEGRAPNPARKACSASSKIRRLSACKQQ [Y36G], the STK11 functional score was 1.55 ± 0.11.
Take MEVVDPQQLGMFTEGELMSVGMDTFIHRIDSTEVIKQPRRKRAKLIGKYLMGDLLGEGSYGKVKEVLDSETLCRRAVKILKKKKLRRIPNGEANVKKEIQLLRRLRHKNVIQLVDVLYNEEKQKMYMVMEYCVCGMQEMLDSVPEKRFPVCQAHGYFCQLIDGLEYLHSQGIVHKDIKPGNLLLTTGGTLKISDLGVAEALHPFAADDTCRTSQGSPAFQPPEIANGLDTFSGFKVDIWSAGVTLYNITTGLYPFEGDNIYKLFENIGKGSYAIPGDCGPPLSDLLKGMLEYEPAKRFSIRQIRQHSWFRKKHPPAEAPVPIPPSPDTKDRWRSMTVVPYLEDLHGADEDEDLFDIEDDIIYTQDFTVPGQVPEEEASHNGQRRGLPKAVCMNGTEAAQLSTKSRAEGRAPNPARKACSASSKIRRLSACKQQ [Y36K]: the STK11 functional score came out at 1.23 ± 0.15.
Consider MEVVDPQQLGMFTEGELMSVGMDTFIHRIDSTEVIAQPRRKRAKLIGKYLMGDLLGEGSYGKVKEVLDSETLCRRAVKILKKKKLRRIPNGEANVKKEIQLLRRLRHKNVIQLVDVLYNEEKQKMYMVMEYCVCGMQEMLDSVPEKRFPVCQAHGYFCQLIDGLEYLHSQGIVHKDIKPGNLLLTTGGTLKISDLGVAEALHPFAADDTCRTSQGSPAFQPPEIANGLDTFSGFKVDIWSAGVTLYNITTGLYPFEGDNIYKLFENIGKGSYAIPGDCGPPLSDLLKGMLEYEPAKRFSIRQIRQHSWFRKKHPPAEAPVPIPPSPDTKDRWRSMTVVPYLEDLHGADEDEDLFDIEDDIIYTQDFTVPGQVPEEEASHNGQRRGLPKAVCMNGTEAAQLSTKSRAEGRAPNPARKACSASSKIRRLSACKQQ [Y36A], for which the STK11 functional score is 0.73 ± 0.18.
Regarding MEVVDPQQLGMFTEGELMSVGMDTFIHRIDSTEVIIQPRRKRAKLIGKYLMGDLLGEGSYGKVKEVLDSETLCRRAVKILKKKKLRRIPNGEANVKKEIQLLRRLRHKNVIQLVDVLYNEEKQKMYMVMEYCVCGMQEMLDSVPEKRFPVCQAHGYFCQLIDGLEYLHSQGIVHKDIKPGNLLLTTGGTLKISDLGVAEALHPFAADDTCRTSQGSPAFQPPEIANGLDTFSGFKVDIWSAGVTLYNITTGLYPFEGDNIYKLFENIGKGSYAIPGDCGPPLSDLLKGMLEYEPAKRFSIRQIRQHSWFRKKHPPAEAPVPIPPSPDTKDRWRSMTVVPYLEDLHGADEDEDLFDIEDDIIYTQDFTVPGQVPEEEASHNGQRRGLPKAVCMNGTEAAQLSTKSRAEGRAPNPARKACSASSKIRRLSACKQQ [Y36I], the STK11 functional score was found to be 1.03 ± 0.17.
For MEVVDPQQLGMFTEGELMSVGMDTFIHRIDSTEVIDQPRRKRAKLIGKYLMGDLLGEGSYGKVKEVLDSETLCRRAVKILKKKKLRRIPNGEANVKKEIQLLRRLRHKNVIQLVDVLYNEEKQKMYMVMEYCVCGMQEMLDSVPEKRFPVCQAHGYFCQLIDGLEYLHSQGIVHKDIKPGNLLLTTGGTLKISDLGVAEALHPFAADDTCRTSQGSPAFQPPEIANGLDTFSGFKVDIWSAGVTLYNITTGLYPFEGDNIYKLFENIGKGSYAIPGDCGPPLSDLLKGMLEYEPAKRFSIRQIRQHSWFRKKHPPAEAPVPIPPSPDTKDRWRSMTVVPYLEDLHGADEDEDLFDIEDDIIYTQDFTVPGQVPEEEASHNGQRRGLPKAVCMNGTEAAQLSTKSRAEGRAPNPARKACSASSKIRRLSACKQQ [Y36D], the STK11 functional score is 1.27 ± 0.22.
Take MEVVDPQQLGMFTEGELMSVGMDTFIHRIDSTEVICQPRRKRAKLIGKYLMGDLLGEGSYGKVKEVLDSETLCRRAVKILKKKKLRRIPNGEANVKKEIQLLRRLRHKNVIQLVDVLYNEEKQKMYMVMEYCVCGMQEMLDSVPEKRFPVCQAHGYFCQLIDGLEYLHSQGIVHKDIKPGNLLLTTGGTLKISDLGVAEALHPFAADDTCRTSQGSPAFQPPEIANGLDTFSGFKVDIWSAGVTLYNITTGLYPFEGDNIYKLFENIGKGSYAIPGDCGPPLSDLLKGMLEYEPAKRFSIRQIRQHSWFRKKHPPAEAPVPIPPSPDTKDRWRSMTVVPYLEDLHGADEDEDLFDIEDDIIYTQDFTVPGQVPEEEASHNGQRRGLPKAVCMNGTEAAQLSTKSRAEGRAPNPARKACSASSKIRRLSACKQQ [Y36C]: the STK11 functional score came out at 1.11 ± 0.25.
In the case of MEVVDPQQLGMFTEGELMSVGMDTFIHRIDSTEVIHQPRRKRAKLIGKYLMGDLLGEGSYGKVKEVLDSETLCRRAVKILKKKKLRRIPNGEANVKKEIQLLRRLRHKNVIQLVDVLYNEEKQKMYMVMEYCVCGMQEMLDSVPEKRFPVCQAHGYFCQLIDGLEYLHSQGIVHKDIKPGNLLLTTGGTLKISDLGVAEALHPFAADDTCRTSQGSPAFQPPEIANGLDTFSGFKVDIWSAGVTLYNITTGLYPFEGDNIYKLFENIGKGSYAIPGDCGPPLSDLLKGMLEYEPAKRFSIRQIRQHSWFRKKHPPAEAPVPIPPSPDTKDRWRSMTVVPYLEDLHGADEDEDLFDIEDDIIYTQDFTVPGQVPEEEASHNGQRRGLPKAVCMNGTEAAQLSTKSRAEGRAPNPARKACSASSKIRRLSACKQQ [Y36H], the STK11 functional score was found to be 1.39 ± 0.48.
As for MEVVDPQQLGMFTEGELMSVGMDTFIHRIDSTEVRYQPRRKRAKLIGKYLMGDLLGEGSYGKVKEVLDSETLCRRAVKILKKKKLRRIPNGEANVKKEIQLLRRLRHKNVIQLVDVLYNEEKQKMYMVMEYCVCGMQEMLDSVPEKRFPVCQAHGYFCQLIDGLEYLHSQGIVHKDIKPGNLLLTTGGTLKISDLGVAEALHPFAADDTCRTSQGSPAFQPPEIANGLDTFSGFKVDIWSAGVTLYNITTGLYPFEGDNIYKLFENIGKGSYAIPGDCGPPLSDLLKGMLEYEPAKRFSIRQIRQHSWFRKKHPPAEAPVPIPPSPDTKDRWRSMTVVPYLEDLHGADEDEDLFDIEDDIIYTQDFTVPGQVPEEEASHNGQRRGLPKAVCMNGTEAAQLSTKSRAEGRAPNPARKACSASSKIRRLSACKQQ [I35R], the STK11 functional score was determined as 1.61 ± 0.21.
For the variant MEVVDPQQLGMFTEGELMSVGMDTFIHRIDSTEVVYQPRRKRAKLIGKYLMGDLLGEGSYGKVKEVLDSETLCRRAVKILKKKKLRRIPNGEANVKKEIQLLRRLRHKNVIQLVDVLYNEEKQKMYMVMEYCVCGMQEMLDSVPEKRFPVCQAHGYFCQLIDGLEYLHSQGIVHKDIKPGNLLLTTGGTLKISDLGVAEALHPFAADDTCRTSQGSPAFQPPEIANGLDTFSGFKVDIWSAGVTLYNITTGLYPFEGDNIYKLFENIGKGSYAIPGDCGPPLSDLLKGMLEYEPAKRFSIRQIRQHSWFRKKHPPAEAPVPIPPSPDTKDRWRSMTVVPYLEDLHGADEDEDLFDIEDDIIYTQDFTVPGQVPEEEASHNGQRRGLPKAVCMNGTEAAQLSTKSRAEGRAPNPARKACSASSKIRRLSACKQQ [I35V], the STK11 functional score worked out at 0.925 ± 0.11.
Take MEVVDPQQLGMFTEGELMSVGMDTFIHRIDSTEVWYQPRRKRAKLIGKYLMGDLLGEGSYGKVKEVLDSETLCRRAVKILKKKKLRRIPNGEANVKKEIQLLRRLRHKNVIQLVDVLYNEEKQKMYMVMEYCVCGMQEMLDSVPEKRFPVCQAHGYFCQLIDGLEYLHSQGIVHKDIKPGNLLLTTGGTLKISDLGVAEALHPFAADDTCRTSQGSPAFQPPEIANGLDTFSGFKVDIWSAGVTLYNITTGLYPFEGDNIYKLFENIGKGSYAIPGDCGPPLSDLLKGMLEYEPAKRFSIRQIRQHSWFRKKHPPAEAPVPIPPSPDTKDRWRSMTVVPYLEDLHGADEDEDLFDIEDDIIYTQDFTVPGQVPEEEASHNGQRRGLPKAVCMNGTEAAQLSTKSRAEGRAPNPARKACSASSKIRRLSACKQQ [I35W]: the STK11 functional score is 1.61 ± 0.3.
In the case of MEVVDPQQLGMFTEGELMSVGMDTFIHRIDSTEVPYQPRRKRAKLIGKYLMGDLLGEGSYGKVKEVLDSETLCRRAVKILKKKKLRRIPNGEANVKKEIQLLRRLRHKNVIQLVDVLYNEEKQKMYMVMEYCVCGMQEMLDSVPEKRFPVCQAHGYFCQLIDGLEYLHSQGIVHKDIKPGNLLLTTGGTLKISDLGVAEALHPFAADDTCRTSQGSPAFQPPEIANGLDTFSGFKVDIWSAGVTLYNITTGLYPFEGDNIYKLFENIGKGSYAIPGDCGPPLSDLLKGMLEYEPAKRFSIRQIRQHSWFRKKHPPAEAPVPIPPSPDTKDRWRSMTVVPYLEDLHGADEDEDLFDIEDDIIYTQDFTVPGQVPEEEASHNGQRRGLPKAVCMNGTEAAQLSTKSRAEGRAPNPARKACSASSKIRRLSACKQQ [I35P], the STK11 functional score was 1.69 ± 0.16.
Then MEVVDPQQLGMFTEGELMSVGMDTFIHRIDSTEVSYQPRRKRAKLIGKYLMGDLLGEGSYGKVKEVLDSETLCRRAVKILKKKKLRRIPNGEANVKKEIQLLRRLRHKNVIQLVDVLYNEEKQKMYMVMEYCVCGMQEMLDSVPEKRFPVCQAHGYFCQLIDGLEYLHSQGIVHKDIKPGNLLLTTGGTLKISDLGVAEALHPFAADDTCRTSQGSPAFQPPEIANGLDTFSGFKVDIWSAGVTLYNITTGLYPFEGDNIYKLFENIGKGSYAIPGDCGPPLSDLLKGMLEYEPAKRFSIRQIRQHSWFRKKHPPAEAPVPIPPSPDTKDRWRSMTVVPYLEDLHGADEDEDLFDIEDDIIYTQDFTVPGQVPEEEASHNGQRRGLPKAVCMNGTEAAQLSTKSRAEGRAPNPARKACSASSKIRRLSACKQQ [I35S], with 1.49 ± 0.2; and MEVVDPQQLGMFTEGELMSVGMDTFIHRIDSTEVTYQPRRKRAKLIGKYLMGDLLGEGSYGKVKEVLDSETLCRRAVKILKKKKLRRIPNGEANVKKEIQLLRRLRHKNVIQLVDVLYNEEKQKMYMVMEYCVCGMQEMLDSVPEKRFPVCQAHGYFCQLIDGLEYLHSQGIVHKDIKPGNLLLTTGGTLKISDLGVAEALHPFAADDTCRTSQGSPAFQPPEIANGLDTFSGFKVDIWSAGVTLYNITTGLYPFEGDNIYKLFENIGKGSYAIPGDCGPPLSDLLKGMLEYEPAKRFSIRQIRQHSWFRKKHPPAEAPVPIPPSPDTKDRWRSMTVVPYLEDLHGADEDEDLFDIEDDIIYTQDFTVPGQVPEEEASHNGQRRGLPKAVCMNGTEAAQLSTKSRAEGRAPNPARKACSASSKIRRLSACKQQ [I35T], with 1.34 ± 0.71.
